Reference: US9273146 (Takeda / Millennium, dated 2016)

B1: MIL-44-148-2 (antibody, V domains shown)
VH: QSVKESGGGLFKPTDTLTLTCTVSGFSLSSHRMNWVRQTPGKGLEWIAIITHNSITYYASWAKSRSTITRNTSENTVTLKMTSLTAADTATYFCAREDSMGYYFDLWGPGTLVTISS
VL: AYDMTQTPASVEVAVGGTVTIKCQASQSISNWLAWYQQKPGQSPKPLIYRASTLASGVSSRFRGSGSGTQFTLTISGVECADAATYYCQQTYTNNHLDNGFGGGTEVVVKG
notes: Rabbit monoclonal IgG from a rabbit-rabbit hybridoma
B2: MIL-44-67-4 (antibody, V domains shown)
VH: QSVEESGGRLVTPGTPLTLTCTASGSDISNYAISWVRQAPGKGLEFIGYISYGKSIYYASWAKGRFAISKTSSTTVDLEITSPTTEDTATYFCAREDSATYSPNLWGPGTLVTVSS
VL: AYDMTQTPASVEVAVGGTVTIKCQASQSINTYLAWYQQKPGQRPKLLIYRASTLASGVSSRFKGSGSGTEFTLTISGVECADAATYYCQQGYSYNNLDRAFGGGTEVVVTG
notes: Rabbit monoclonal IgG from a rabbit-rabbit hybridoma; also called MIL-44-67-4 antibody; subclone #67-4

Columns and labels:
[1] = molecular target: T1, human GCC (guanylyl cyclase C) (human, UniProt P25092 24-1073); experiment: automated IHC (TechMate) on FFPE colon tumors and cell pellets, antibody at 1.0 ug/ml overnight
T1 construct: Target of the IHC on formalin-fixed, paraffin-embedded HEK293-GCC xenografts, GCC-transfected cell pellets and human colon tissues; also called hGCC; STAR

[2] = molecular target: T1, human GCC (guanylyl cyclase C); experiment: IHC on FFPE GCC-transfected and parental cell pellets

T1 sequence (P25092 24-1073 limits assumed): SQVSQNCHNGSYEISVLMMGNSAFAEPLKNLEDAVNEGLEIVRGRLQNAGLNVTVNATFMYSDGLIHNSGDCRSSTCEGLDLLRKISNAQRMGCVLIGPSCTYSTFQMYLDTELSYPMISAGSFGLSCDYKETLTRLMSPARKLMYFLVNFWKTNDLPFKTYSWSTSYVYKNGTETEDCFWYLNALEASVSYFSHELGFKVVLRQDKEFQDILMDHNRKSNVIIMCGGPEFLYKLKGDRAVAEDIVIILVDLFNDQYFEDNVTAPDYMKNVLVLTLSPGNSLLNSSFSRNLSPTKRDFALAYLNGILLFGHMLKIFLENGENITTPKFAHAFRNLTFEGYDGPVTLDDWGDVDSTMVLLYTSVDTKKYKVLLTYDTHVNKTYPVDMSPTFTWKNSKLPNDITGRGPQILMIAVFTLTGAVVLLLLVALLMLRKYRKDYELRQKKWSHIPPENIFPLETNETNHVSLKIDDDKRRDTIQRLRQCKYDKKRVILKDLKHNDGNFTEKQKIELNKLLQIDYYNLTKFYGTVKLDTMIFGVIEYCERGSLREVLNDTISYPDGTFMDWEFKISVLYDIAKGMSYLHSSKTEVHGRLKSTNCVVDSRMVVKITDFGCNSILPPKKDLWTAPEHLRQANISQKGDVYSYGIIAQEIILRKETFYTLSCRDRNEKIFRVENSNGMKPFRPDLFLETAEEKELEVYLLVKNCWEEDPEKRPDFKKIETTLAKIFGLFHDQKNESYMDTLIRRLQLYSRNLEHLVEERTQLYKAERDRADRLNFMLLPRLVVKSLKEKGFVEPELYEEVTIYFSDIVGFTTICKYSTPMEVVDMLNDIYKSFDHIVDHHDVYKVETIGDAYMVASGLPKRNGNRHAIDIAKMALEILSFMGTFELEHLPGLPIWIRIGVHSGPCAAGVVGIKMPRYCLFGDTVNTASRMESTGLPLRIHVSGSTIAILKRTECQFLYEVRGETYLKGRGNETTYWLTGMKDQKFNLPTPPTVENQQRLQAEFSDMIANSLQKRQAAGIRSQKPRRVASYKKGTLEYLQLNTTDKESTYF

| Binder | binding result [1] | binding result [2] |
| --- | --- | --- |
| B1 | binds |  |
| B2 |  | binds |
